PMC8818652, “Msi2‐mediated MiR7a‐1 processing repression promotes myogenesis”

Experiments:
[1] = target: HuR (ELAV-like protein 1) (UniProt P70372 1-326); assay: EMSA; HuR alone; 100 mM Tris-HCl pH 7.5, 7.5 mM KCl, 25 mM MgCl2, 375 mM NaCl, 12.5% glycerol, 5 mM DTT, 30 C 30 min (as printed, possibly 5x buffer); 6% native PAGE at 4 C; settings: protein: recombinant
HuR (ELAV-like protein 1), sequence (P70372 whole entry): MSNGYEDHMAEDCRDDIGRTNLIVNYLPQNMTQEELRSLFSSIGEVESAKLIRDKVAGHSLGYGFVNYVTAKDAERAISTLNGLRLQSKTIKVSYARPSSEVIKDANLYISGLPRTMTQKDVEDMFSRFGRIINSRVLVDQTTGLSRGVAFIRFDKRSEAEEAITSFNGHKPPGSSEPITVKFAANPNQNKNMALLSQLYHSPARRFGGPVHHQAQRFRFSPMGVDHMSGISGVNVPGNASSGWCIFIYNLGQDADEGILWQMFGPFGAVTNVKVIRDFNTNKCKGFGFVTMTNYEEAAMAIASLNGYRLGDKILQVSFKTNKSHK

[2] = target: HuR (ELAV-like protein 1);Msi2 (Musashi 2) (mouse?;mouse?, UniProt P70372;Q920Q6 1-326;1-346, |); assay: EMSA; HuR and Msi2 together, strong cooperative binding; 100 mM Tris-HCl pH 7.5, 7.5 mM KCl, 25 mM MgCl2, 375 mM NaCl, 12.5% glycerol, 5 mM DTT, 30 C 30 min (as printed, possibly 5x buffer); 6% native PAGE at 4 C; settings: protein: recombinant;recombinant; tags:

HuR (ELAV-like protein 1);Msi2 (Musashi 2), sequence (P70372 whole entry, chain 1 of 2): as the sequence (P70372 whole entry) above
HuR (ELAV-like protein 1);Msi2 (Musashi 2), sequence (Q920Q6 whole entry, chain 2 of 2): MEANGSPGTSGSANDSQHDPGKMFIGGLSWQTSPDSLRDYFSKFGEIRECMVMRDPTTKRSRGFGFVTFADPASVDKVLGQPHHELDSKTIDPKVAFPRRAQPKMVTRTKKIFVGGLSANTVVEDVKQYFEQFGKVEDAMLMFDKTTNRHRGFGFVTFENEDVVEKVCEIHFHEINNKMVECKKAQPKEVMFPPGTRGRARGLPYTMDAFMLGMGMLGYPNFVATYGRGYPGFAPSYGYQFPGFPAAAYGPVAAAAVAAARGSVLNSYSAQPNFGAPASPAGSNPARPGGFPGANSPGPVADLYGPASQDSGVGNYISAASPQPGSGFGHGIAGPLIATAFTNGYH

UAAUUCGUACUUUUUUUUUCUUUUCUUUUAUAGUGUGAA (ssRNA) [WT Flanking probe]
binding result [1]: binds | binding result [2]: binds
